In patent US20240382610A1 (TALLAC THERAPEUTICS, published 2024):
Changes are numbered by the printed parent chain. Blank lines part the entries; values can stand above or below the binder they belong to.

Key:
[1] = target: T1, Human nectin-4 ECD-6His (TNT-175) (human, UniProt Q96NY8 32-349); experiment: SPR Biacore 8K, mAb on protein A
T1 construct: the entry holds the extracellular domain with the C-terminal 6His tag
T1 sequence: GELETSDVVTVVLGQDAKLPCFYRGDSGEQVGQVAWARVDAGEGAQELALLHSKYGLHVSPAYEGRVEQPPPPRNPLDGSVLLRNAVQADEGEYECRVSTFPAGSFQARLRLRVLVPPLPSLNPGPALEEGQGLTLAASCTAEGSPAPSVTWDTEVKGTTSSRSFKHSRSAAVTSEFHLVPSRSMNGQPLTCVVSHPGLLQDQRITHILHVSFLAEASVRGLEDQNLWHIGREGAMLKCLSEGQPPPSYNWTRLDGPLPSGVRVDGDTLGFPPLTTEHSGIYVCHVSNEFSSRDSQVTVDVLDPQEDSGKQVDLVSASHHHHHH

[2] = target: T1, Human nectin-4 ECD-6His (TNT-175); experiment: SPR Biacore 8K
Description: (§1) Further testing of select nectin-4 antibodies to human, mouse and cyno nectin-4. Additional assessment of the nectin-4 antibodies was performed to measure binding to human, mouse, and cynomolgus nectin-4. Biacore 8K (Cytiva, Marlborough, MA) was used to further characterize binding of four of the nectin-4 monoclonal antibodies.
(§2) All experiments were performed at 25° C. temperature and in HBS-EP+ run buffer (10 mM HEPES, pH 7.4, 150 mM NaCl, 3 mM EDTA, 0.05% Tween-20). The antibodies were captured or immobilized on a Biacore chip either through amine-coupling method on a CM5 or captured by ProteinA chip or captured by anti-mouse polyclonal antibody or anti-human polyclonal antibody. […] The data were processed and analyzed in Biacore Insight Evaluation Software using double-reference subtraction of the data and then fitted to a simple Langmuir binding model using global kinetic rate constants for association (Kₐ), dissociation (Kd), and Rₘₐₓ values per sample. Fit quality was determined by inspection of the residuals and of statistical T values and the equilibrium dissociation (or affinity) constant was deduced by the ratio of the kinetic rate constants. KD=Kd/Kₐ.

[3] = target: T2, Human nectin-4-IgV-6His (TNT-252) (human, UniProt Q96NY8 32-147); experiment: SPR Biacore 8K
T2 construct: entry includes the 6His tag
T2 sequence: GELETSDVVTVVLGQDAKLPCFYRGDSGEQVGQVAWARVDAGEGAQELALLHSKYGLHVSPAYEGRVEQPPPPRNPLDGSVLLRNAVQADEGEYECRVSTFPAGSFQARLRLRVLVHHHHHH
Description: as §1, §2

[4] = target: T3, Mouse nectin-4 ECD-6His (TNT-250) (mouse, UniProt Q8R007 31-347); experiment: SPR Biacore 8K
T3 construct: entry includes the 6His tag; also called mouse nectin-4-LCD
T3 sequence: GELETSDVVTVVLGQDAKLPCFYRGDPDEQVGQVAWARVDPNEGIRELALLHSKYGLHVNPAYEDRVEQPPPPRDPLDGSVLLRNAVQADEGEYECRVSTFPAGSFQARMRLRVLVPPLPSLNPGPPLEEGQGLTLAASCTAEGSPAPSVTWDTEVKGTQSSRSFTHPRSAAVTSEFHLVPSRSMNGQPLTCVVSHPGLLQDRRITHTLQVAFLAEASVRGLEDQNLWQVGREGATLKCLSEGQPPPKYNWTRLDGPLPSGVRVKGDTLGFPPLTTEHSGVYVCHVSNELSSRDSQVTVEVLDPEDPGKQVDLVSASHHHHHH
Description: as §1, §2

[5] = target: T4, Cyno nectin-4 ECD-6His (TNT-255) (cynomolgus, UniProt Q96NY8 32-349 (human entry)); experiment: SPR Biacore 8K
T4 construct: entry includes the 6His tag
T4 chain: T1 sequence with V39A, I230V
Description: as §1, §2

[6] = target: T1, Human nectin-4 ECD-6His (TNT-175); experiment: SPR Biacore 8K, mAb on protein A; remark: listed apart in the source
[7] = target: T2, Human nectin-4-IgV-6His (TNT-252); experiment: SPR Biacore 8K, mAb on protein A
[8] = target: T3, Mouse nectin-4 ECD-6His (TNT-250); experiment: SPR Biacore 8K, mAb on protein A
[9] = target: T4, Cyno nectin-4 ECD-6His (TNT-255); experiment: SPR Biacore 8K, mAb on protein A

Kd [1]: 1 nM | Kd [2]: 1.5 nM | Kd [3]: 1.8 nM | Kd [4]: 6 nM | Kd [5]: 4.2 nM | Kd [6]: 1.37 nM | Kd [7]: 1.77 nM | Kd [8]: 5.07 nM | Kd [9]: 4.19 nM
B1: TNT-207 (antibody, human IgG1, kappa)
heavy: not shown
light: DIQMTQSPSSLSASVGDRVTITCRASQGISNYLAWFQQKPGKAPKSLISAASSLQSGVPSRFSGSGSGTDFTLTISSLQPEDFATYYCLQHDSFPITFGGGTKLEIKRTVAAPSVFIFPPSDEQLKSGTASVVCLLNNFYPREAKVQWKVDNALQSGNSQESVTEQDSKDSTYSLSSTLTLSKADYEKHKVYACEVTHQGLSSPVTKSFNRGEC

Kd [2]: 70 nM | Kd [3]: 138 nM | Kd [4]: 115 nM | Kd [5]: 172 nM | Kd [6]: 101 nM | Kd [7]: 138 nM | Kd [8]: 196 nM | Kd [9]: 172 nM
B2: TNT-203 (antibody, human IgG1, kappa)
heavy: not shown
light: EIVLTQSPATLSLSPGERATLSCRASQSVSSYLAWYQQKPGQAPRLLIYDASNRATGIPARFSGSGSGTDFTLTISSLQAEDFATYYCQQSYSTRFGGGTKVEIKRTVAAPSVFIFPPSDEQLKSGTASVVCLLNNFYPREAKVQWKVDNALQSGNSQESVTEQDSKDSTYSLSSTLTLSKADYEKHKVYACEVTHQGLSSPVTKSFNRGEC
